This note sets out measurements from patent US20260098102A1 (NATIONAL UNIVERSITY CORPORATION KOBE UNIVERSITY, published 2026).

One assay deals with T1, human SIRPA_V1 protein (human, UniProt P78324 31-504).
T1 construct: Expressed on 293α cells from pcDNA3.2 V5-DEST or pFLAG V5-DEST (FLAG-tagged) vectors; also called human SIRPA Variant 1; hSIRPA V1
The assay can be described thus: blocking cell-based ELISA: peroxidase-labeled CD47-Fc (1 µg/mL) on 293α cells expressing SIRPA_V1. The method, then: (§1) After the culture supernatant of the human SIRPA_V1 or V2 expression vector-introduced 293 cells prepared in Example 9)-1 was removed, 50 μL per well of various anti-SIRPA antibodies or various control Human IgG diluted with 5% FBS-containing PBS to a final concentration of 0 to 10,000 ng/ml was added to each of pcDNA3.2 V5-DEST-SIRPA_V1 or V2-introduced 293α cells, immediately followed by addition of 50 µL per well of peroxidase-labeled CD47-Fc prepared with 5% FBS-containing PBS at 1 μg/mL, and the mixture was allowed to stand at 4° C. for one hour. Thereafter, the SIRPA-CD47 binding inhibitory activity was evaluated in the same manner as in 1)-6-3.

For another assay, the target named is T2, human SIRPB (human, UniProt O00241 30-398).
T2 construct: whole, on cells; FLAG-tagged (pFLAG V5-DEST), on CHO-K1 cells; also called SIRPβ1; signal regulatory protein β1
T2 sequence (O00241 30-398): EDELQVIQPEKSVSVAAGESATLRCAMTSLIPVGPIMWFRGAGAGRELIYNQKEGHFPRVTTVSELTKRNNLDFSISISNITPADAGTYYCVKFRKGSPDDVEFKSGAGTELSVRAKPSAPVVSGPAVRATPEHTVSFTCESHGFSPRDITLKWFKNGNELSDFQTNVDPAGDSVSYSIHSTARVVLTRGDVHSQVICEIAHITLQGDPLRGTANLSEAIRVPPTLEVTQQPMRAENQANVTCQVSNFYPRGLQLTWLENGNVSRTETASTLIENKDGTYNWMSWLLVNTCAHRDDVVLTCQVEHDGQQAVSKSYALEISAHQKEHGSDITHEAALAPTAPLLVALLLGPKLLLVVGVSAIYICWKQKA
The assay can be described thus: flow cytometry on CHO-K1 cells expressing FLAG-tagged human SIRPB; PE anti-human IgG; MFI standardized to secondary antibody alone. The method, then:
SIRPβ1 (signal regulatory protein β1: the amino acid sequence thereof is published as RefSeq accession number NP_006056) and SIRPγ (signal regulatory protein γ: the amino acid sequence thereof is published as RefSeq accession number NP_061026) are molecules belonging to the SIRPA family. In the present invention, “SIRPα” may be referred to as “SIRPA,” “SIRPβ1” may be referred to as […] and “SIRPγ” may be referred to as “SIRPG.” CHO-K1 cells were prepared in a 10% FBS-containing Ham's F-12K medium at 3.3×10⁵ cells/mL and cultured overnight at 37° C. under a 5% CO₂ condition. pFLAG V5-DEST-human SIRPβ, pFLAG V5-DEST-human SIRPG, or pFLAG V5-DEST was introduced into the cells using Lipofectamine LTX (Invitrogen), and cells were cultured in a 10% FBS-containing Ham's F-12K medium at 37° C. under a 5% CO₂ condition for 24 hours. The obtained introduced cells were collected and seeded on a 96-well plate. After the culture supernatant was removed, 100 μL per well of various anti-human SIRPA antibodies or various control human IgG was added to each of various gene introduced cells at a final concentration of 0 to 10,000 ng/mL, and the mixture was allowed to stand at 4° C. for 25 minutes. After the mixture was centrifuged, the supernatant was removed, and cells were washed twice with 5% FBS-containing PBS. After the mixture was centrifuged, the supernatant was removed, 50 μL per well of a 1/400 diluted solution of PE Mouse anti-Human IgG antibody (BioLegend) was added, and the mixture was allowed to stand at 4° C. for 25 minutes. After the mixture was centrifuged, the supernatant was removed, and cells were washed twice with 5% FBS-containing PBS.
(§2) After the mixture was centrifuged, and the supernatant was removed, cells were suspended in 100 μL per well of 1× BD Stabilizing Fixative (Becton Dickinson), and the cell count was measured by flow cytometry (FACS Canto II: Becton Dickinson). For data analysis, FlowJo (TreeStar) was used. Cells were characterized by detecting forward scattered (FSC) light and side-scattered (SSC) light, and then the mean fluorescence intensity of PE was calculated. Binding of various antibodies to the family molecules was calculated by standardizing the fluorescence intensity using the mean fluorescence intensity of a sample in which the secondary antibody alone was allowed to react.

The target in another assay is T3, human SIRPG (human, UniProt Q9P1W8 29-387).
T3 construct: whole, on cells; FLAG-tagged (pFLAG V5-DEST), on CHO-K1 cells; also called SIRPγ; signal regulatory protein γ
T3 sequence (Q9P1W8 29-387): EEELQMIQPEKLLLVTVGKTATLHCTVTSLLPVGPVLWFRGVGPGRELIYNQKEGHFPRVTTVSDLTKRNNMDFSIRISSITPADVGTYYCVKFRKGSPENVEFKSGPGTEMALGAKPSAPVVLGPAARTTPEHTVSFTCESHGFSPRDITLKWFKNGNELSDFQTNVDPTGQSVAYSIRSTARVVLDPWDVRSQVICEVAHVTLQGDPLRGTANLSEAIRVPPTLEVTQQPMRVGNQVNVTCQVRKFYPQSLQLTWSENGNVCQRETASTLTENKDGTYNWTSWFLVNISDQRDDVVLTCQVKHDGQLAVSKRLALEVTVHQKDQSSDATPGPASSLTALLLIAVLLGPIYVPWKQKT
The assay can be described thus: flow cytometry on CHO-K1 cells expressing FLAG-tagged human SIRPG; PE anti-human IgG; MFI standardized to secondary antibody alone. The method, then: SIRPβ1 (signal regulatory protein β1: the amino acid sequence thereof is published as RefSeq accession number NP_006056) and SIRPγ (signal regulatory protein γ: the amino acid sequence thereof is published as RefSeq accession number NP_061026) are molecules belonging to the SIRPA family. In the present invention, “SIRPα” may be referred to as “SIRPA,” “SIRPβ1” may be referred to as […] and “SIRPγ” may be referred to as “SIRPG.” CHO-K1 cells were prepared in a 10% FBS-containing Ham's F-12K medium at 3.3×10⁵ cells/mL and cultured overnight at 37° C. under a 5% CO₂ condition. pFLAG V5-DEST-human SIRPβ, pFLAG V5-DEST-human SIRPG, or pFLAG V5-DEST was introduced into the cells using Lipofectamine LTX (Invitrogen), and cells were cultured in a 10% FBS-containing Ham's F-12K medium at 37° C. under a 5% CO₂ condition for 24 hours. The obtained introduced cells were collected and seeded on a 96-well plate. After the culture supernatant was removed, 100 μL per well of various anti-human SIRPA antibodies or various control human IgG was added to each of various gene introduced cells at a final concentration of 0 to 10,000 ng/mL, and the mixture was allowed to stand at 4° C. for 25 minutes. After the mixture was centrifuged, the supernatant was removed, and cells were washed twice with 5% FBS-containing PBS. […]
as §2, with “For data analysis, FlowJo (TreeStar) was used.” left out

In the next assay the target is T4, human SIRPA_V2 protein (human, UniProt P78324 31-504).
T4 construct: Expressed on 293α cells from pcDNA3.2 V5-DEST or pFLAG V5-DEST (FLAG-tagged) vectors; also called human SIRPA Variant 2; ECD variant (full-length, amino acids 1 to 504)
T4 sequence (P78324 other isoform, or with tags, fused parts or gaps limits assumed): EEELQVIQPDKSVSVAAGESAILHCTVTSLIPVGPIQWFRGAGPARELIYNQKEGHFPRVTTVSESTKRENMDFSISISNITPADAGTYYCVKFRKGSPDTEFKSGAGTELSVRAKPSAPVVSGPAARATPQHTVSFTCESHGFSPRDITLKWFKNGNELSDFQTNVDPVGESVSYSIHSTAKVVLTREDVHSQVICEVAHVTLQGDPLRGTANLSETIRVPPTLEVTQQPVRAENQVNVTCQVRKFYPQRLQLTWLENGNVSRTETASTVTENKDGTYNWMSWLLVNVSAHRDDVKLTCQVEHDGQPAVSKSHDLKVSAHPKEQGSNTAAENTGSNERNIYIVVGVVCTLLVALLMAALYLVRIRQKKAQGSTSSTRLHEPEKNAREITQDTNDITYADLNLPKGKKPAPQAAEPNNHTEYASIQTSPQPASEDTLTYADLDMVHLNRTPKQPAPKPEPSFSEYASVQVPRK
The assay can be described thus: blocking cell-based ELISA: peroxidase-labeled CD47-Fc (1 µg/mL) on 293α cells expressing SIRPA_V2. The method, then: as §1

T1 sequence (P78324 31-504 limits assumed): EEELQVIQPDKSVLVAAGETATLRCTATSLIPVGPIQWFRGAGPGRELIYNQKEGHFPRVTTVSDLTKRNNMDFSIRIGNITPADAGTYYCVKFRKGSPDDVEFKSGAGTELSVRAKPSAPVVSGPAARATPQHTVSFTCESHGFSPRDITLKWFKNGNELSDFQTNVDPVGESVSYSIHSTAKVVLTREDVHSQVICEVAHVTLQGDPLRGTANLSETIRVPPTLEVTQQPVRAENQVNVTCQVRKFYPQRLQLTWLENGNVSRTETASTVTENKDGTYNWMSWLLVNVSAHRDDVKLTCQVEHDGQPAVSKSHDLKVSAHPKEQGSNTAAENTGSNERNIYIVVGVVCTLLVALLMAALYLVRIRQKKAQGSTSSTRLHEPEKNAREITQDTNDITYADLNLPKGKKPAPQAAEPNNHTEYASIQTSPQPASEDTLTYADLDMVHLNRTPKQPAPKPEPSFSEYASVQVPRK

B1: humanized anti-SIRPA antibody hD13_H1L3 (antibody, human IgG4 S228P, kappa, F234A L235A, V domains shown)
VH: QVQLVESGGGVVQPGRSLRLSCAASGFTFSDYGMIWVRQAPGKGLEWVASISSSSSYIYYADSVKGRFTISRDNSKNRLYLQMNSLRAEDTAVYYCARRYYGFNYPFDYWGQGTMVTVSS
VL: DTQLTQSPSSLSASVGQRVTITCGASKSVRTYMHWYQQKPGKQPKLLIYSASNLEAGVPSRFSGSGSGTDFTLTISSLQPEDFATYYCQQSNEPPYTFGQGTKLEIKR
notes: hH1 heavy chain (IgG4proFALA) and hL3 kappa light chain; also called hD13_HIL3; HIL3 antibody
As for B1, the 50% inhibitory concentration (IC50) in the assay with human SIRPA_V1 protein was found to be 1.58 µg/mL; with human SIRPA_V2 protein it was 1.3 µg/mL. The “EC50 (read off the curve)” value with human SIRPB and with human SIRPG was ~0.03 µg/mL each time.
